In the supplement of paper PMC12855868:

B1: library; numbered along this chain (parent)
chain: MAAAGGARLLRAASAVLGGPAGRWLHHAGSRAGSSGLLRNRGPGGSAEASRSLSVSARARSSSEDKITVHFINRDGETLTTKGKVGDSLLDVVVENNLDIDGFGACEGTLACSTCHLIFEDHIYEKLDAITDEENDMLDLAYGLTDRSRLGCQICLTKSMDNMTVRVPETVADARQSIDVGKTS

Variants of: B1
Test: scaled log2 fold change in cell abundance, elesclomol vs control (0 = silent mean, 1 = nonsense mean) (scaled log2 ratio); higher = higher viability under elesclomol (loss of FDX1 cuproptosis function)
Conditions: glucose 10 mM
Experimental: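 Deep mutational scan of full-length human FDX1: a pooled saturation-mutagenesis ORF library (every residue 2-184 mutated to all 19 amino acids plus stop, and silent codons where available) was expressed by lentivirus in FDX1-knockout ABC1 (14 days) or HEK293T (11 days) cells grown with elesclomol (ES) or DMSO control. Variant abundance came from ORF sequencing. The log2 fold change (ES vs control, mean of duplicates) was centred on the silent-variant mean (0) and scaled to the nonsense-variant mean (1). Higher values mean greater viability under ES, i.e. loss of FDX1 function in cuproptosis.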

[1] = with ABC1 FDX1 KO, elesclomol 5 nM, 14 days
[2] = with HEK293T FDX1 KO, elesclomol 40 nM, 11 days
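Further: variant abundance is its share of total variant reads in each endpoint sample, from next-generation sequencing of the integrated ORF PCR-amplified out of genomic DNA.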

Variant	scaled log2 fold change [1]	scaled log2 fold change [2]
G76V	0.401	-0.808
G76S	0.164	
G76I	0.0447	-0.0276
G76L	0.0165	-0.41
G76F	-0.264	-0.273
G76C	0.377	0.277
G76E	-0.688	0.0105
G76H	0.293	-0.385
G76Y	-0.241	0.296
G76T	0.217	
G76M	0.321	-0.269
G76R	-0.0307	
G76P	0.585	0.000649
G76N	-0.0936	-0.272
G76D	0.21	1.47
G76K	-0.353	-0.04
G76A	-0.303	-0.122
R74W	0.234	
R74Y	-0.0737	0.186
R74S	0.363	0.881
R74V	0.486	
R74M	-0.486	0.445
R74Q	0.323	-0.599
R74I	-0.228	1.14
R74N	-1.08	1.31

Variant	scaled log2 fold change [1]	scaled log2 fold change [2]
R74A	-0.255	-0.8
R74T	-0.0213	-0.108
R74G	0.597	-0.839
R74E	-0.261	
R74H	-0.0392	-0.565
R74P	0.11	
R74C	0.324	0.937
R74L	0.361	-0.577
R74F	0.533	-0.0248
R74D	0.558	1.28
T80C	0.0285	-0.291
T80A	-0.231	
T78H	-0.378	1.01
T78Y	-0.386	-0.209
T78V	0.108	-0.249
T78C	-0.0788	
T78W	-0.127	-0.938
T78Q	0.0403	-0.00407
T78L	-0.709	0.584
T78K	0.447	-1.09
T78N	-0.0446	-0.273
T78G	-0.0398	0.179
T78D	0.00307	-0.427
T78I	-0.229	
T78P	-0.0243	-0.366

Variant	scaled log2 fold change [1]	scaled log2 fold change [2]
T78R	-0.905	-0.932
T78E	0.171	2.14
T78M	-0.54	-0.0932
T78S	0.0645	0.487
N73I	-1.24	
N73G	0.582	0.401
N73T	-0.183	
N73K	0.136	1.39
N73R	0.219	-0.254
N73H	-0.0805	-0.159
N73V	0.102	0.976
N73L	-0.0741	0.0359
N73M	-0.526	0.0726
N73Y	0.218	-0.741
N73W	-0.0509	
N73Q	-0.00176	0.207
N73P	0.17	-0.147
N73S	0.237	
E77A	0.306	1.06
E77W	0.139	0.815
E77M	-0.575	-0.139
E77N	0.0389	-0.504
E77G	0.311	-0.306
E77H	-0.0496	-0.0091
E77Q	-0.0695	0.00586

Variant	scaled log2 fold change [1]	scaled log2 fold change [2]
E77L	0.262	0.144
E77D	-0.61	-0.9
E77C	-0.00193	-0.0101
E77T	-1.24	-0.154
E77P	0.108	
E77I	-0.922	-0.714
E77R	-0.178	-0.307
E77Y	0.514	-0.542
E77K	0.242	-0.341
E77S	-0.974	0.00555
E77V	-0.145	-0.226
E77F	-0.642	0.94
L79C	0.0853	-0.242
L79N	0.26	0.247
L79S	0.0141	
L79I	-0.0225	-0.761
L79F	0.0893	-0.166
L79Q	-0.224	-0.128
L79V	0.047	1.39
L79H	-0.594	0.119
L79G	0.145	1.18
L79A	0.253	0.232
L79Y	-0.343	0.278
L79W	-0.0916	0.138
L79K	0.0188	0.977

Variant	scaled log2 fold change [1]	scaled log2 fold change [2]
L79D	0.287	-0.0667
L79E	0.0989	-0.00345
L79T	-0.0538	
L79M	-0.15	-0.649
L79R	-0.538	-0.117
L79P	0.634	0.299
D75A	-0.423	0.113
D75T	-0.752	0.0498
D75H	0.273	
D75E	0.271	0.128
D75R	-0.271	-0.0753
D75Q	0.457	
D75C	-0.0427	-0.175
D75N	-0.329	0.364
D75F	-0.548	0.355
D75L	0.0705	-0.00446
D75V	-0.11	-0.372
D75K	-0.678	
D75W	0.241	-0.146
D75I	-0.502	-0.38
D75Y	-0.306	
D75M	-0.0398	-0.59
D75S	-0.0315	
